This is an account of results in patent US20180155451A1 (published 2018).

Test [1] has as its target T1, FcγRIa extracellular domain with C-terminal His tag (human, UniProt P12314 16-292).
T1 construct: extracellular domain; soluble receptor expressed in FreeStyle293 cells, used as analyte in Biacore; also called FcgRI; 1a; not shown: His tag attached to the C terminus
Kind of test: SPR (Biacore), antibody captured on antigen peptide chip, FcγR as analyte; relative binding. (In general: SPR reads the build-up and loss of mass on a sensor chip optically.)

For test [2], the target named is T2, FcγRIIb extracellular domain with C-terminal His tag (human, UniProt P31994 43-217).
T2 construct: extracellular domain; soluble receptor expressed in FreeStyle293 cells, used as analyte in Biacore; also called FcgRIIb; 2b; not shown: His tag attached to the C terminus
T2 sequence (looked up): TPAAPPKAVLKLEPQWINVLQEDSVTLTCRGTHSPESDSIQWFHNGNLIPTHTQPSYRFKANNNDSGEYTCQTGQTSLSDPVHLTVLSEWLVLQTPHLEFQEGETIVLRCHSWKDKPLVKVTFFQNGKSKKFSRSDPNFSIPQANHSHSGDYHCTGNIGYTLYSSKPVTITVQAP
The test is described as above.

T1 sequence (P12314 16-292): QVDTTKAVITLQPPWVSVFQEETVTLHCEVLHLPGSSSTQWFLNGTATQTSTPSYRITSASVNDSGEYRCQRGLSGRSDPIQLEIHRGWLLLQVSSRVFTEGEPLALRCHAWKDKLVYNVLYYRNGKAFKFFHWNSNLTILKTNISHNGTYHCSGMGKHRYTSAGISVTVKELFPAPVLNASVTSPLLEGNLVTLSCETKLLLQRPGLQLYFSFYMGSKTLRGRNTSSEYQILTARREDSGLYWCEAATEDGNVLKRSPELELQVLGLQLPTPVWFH

B1: GpH7-A5/GpH7-B3 variant Q295_12R/GpL16-k0 (antibody, human IgG1, kappa)
heavy 1: not shown
heavy 2: not shown
light: DIVMTQSPLSLPVTPGEPASISCQASESLVHSNRNTYLHWYLQKPGQSPQLLIYKVSNRFSGVPDRFSGSGSGTDFTLKISRVEAEDVGVYYCSQNTHVPPTFGQGTKVEIERTVAAPSVFIFPPSDEQLKSGTASVVCLLNNFYPREAKVQWKVDNALQSGNSQESVTEQDSKDSTYSLSSTLTLSKADYEKHKVYACEVTHQGLSSPVTKSFNRGEC
notes: heterodimerized anti-glypican-3 IgG1; alteration in the GpH7-B3 chain only; also called He Ab
In the case of B1, the He/Con_1a in test [1] is 100 % of control GpH7-A5/GpH7-B3/GpL16-k0 (=100). The He/Con_2b in test [2] was 65.2 % of control GpH7-A5/GpH7-B3/GpL16-k0 (=100).

B2: GpH7-A5/GpH7-B3 variant Q295_03V/GpL16-k0 (antibody, human IgG1, kappa)
heavy 1: not shown
heavy 2: not shown
light: DIVMTQSPLSLPVTPGEPASISCQASESLVHSNRNTYLHWYLQKPGQSPQLLIYKVSNRFSGVPDRFSGSGSGTDFTLKISRVEAEDVGVYYCSQNTHVPPTFGQGTKVEIERTVAAPSVFIFPPSDEQLKSGTASVVCLLNNFYPREAKVQWKVDNALQSGNSQESVTEQDSKDSTYSLSSTLTLSKADYEKHKVYACEVTHQGLSSPVTKSFNRGEC
notes: as for B1
Regarding B2, the He/Con_1a in test [1] was 104 % of control GpH7-A5/GpH7-B3/GpL16-k0 (=100). Also, the He/Con_2b in test [2] is 75.7 % of control GpH7-A5/GpH7-B3/GpL16-k0 (=100).

B3: GpH7-A5/GpH7-B3 variant P329_01G/GpL16-k0 (antibody, human IgG1, kappa)
heavy 1: not shown
heavy 2: not shown
light: DIVMTQSPLSLPVTPGEPASISCQASESLVHSNRNTYLHWYLQKPGQSPQLLIYKVSNRFSGVPDRFSGSGSGTDFTLKISRVEAEDVGVYYCSQNTHVPPTFGQGTKVEIERTVAAPSVFIFPPSDEQLKSGTASVVCLLNNFYPREAKVQWKVDNALQSGNSQESVTEQDSKDSTYSLSSTLTLSKADYEKHKVYACEVTHQGLSSPVTKSFNRGEC
notes: as for B1
Regarding B3, the He/Con_1a in test [1] is 101 % of control GpH7-A5/GpH7-B3/GpL16-k0 (=100). In test [2], the He/Con_2b is 41.7 % of control GpH7-A5/GpH7-B3/GpL16-k0 (=100).

B4: GpH7-A5/GpH7-B3 variant S324_09D/GpL16-k0 (antibody, human IgG1, kappa)
heavy 1: not shown
heavy 2: not shown
light: DIVMTQSPLSLPVTPGEPASISCQASESLVHSNRNTYLHWYLQKPGQSPQLLIYKVSNRFSGVPDRFSGSGSGTDFTLKISRVEAEDVGVYYCSQNTHVPPTFGQGTKVEIERTVAAPSVFIFPPSDEQLKSGTASVVCLLNNFYPREAKVQWKVDNALQSGNSQESVTEQDSKDSTYSLSSTLTLSKADYEKHKVYACEVTHQGLSSPVTKSFNRGEC
notes: as for B1
Consider B4, for which the He/Con_1a in test [1] was 104 % of control GpH7-A5/GpH7-B3/GpL16-k0 (=100). For the same molecule, in test [2], the He/Con_2b was 85.8 % of control GpH7-A5/GpH7-B3/GpL16-k0 (=100).

B5: GpH7-A5/GpH7-B3 variant Q295_04F/GpL16-k0 (antibody, human IgG1, kappa)
heavy 1: not shown
heavy 2: not shown
light: DIVMTQSPLSLPVTPGEPASISCQASESLVHSNRNTYLHWYLQKPGQSPQLLIYKVSNRFSGVPDRFSGSGSGTDFTLKISRVEAEDVGVYYCSQNTHVPPTFGQGTKVEIERTVAAPSVFIFPPSDEQLKSGTASVVCLLNNFYPREAKVQWKVDNALQSGNSQESVTEQDSKDSTYSLSSTLTLSKADYEKHKVYACEVTHQGLSSPVTKSFNRGEC
notes: as for B1
On to B5, for which the He/Con_1a in test [1] was 102 % of control GpH7-A5/GpH7-B3/GpL16-k0 (=100). For the same molecule, the He/Con_2b in test [2] was 64.7 % of control GpH7-A5/GpH7-B3/GpL16-k0 (=100).

B6: GpH7-A5/GpH7-B3 variant S324_08L/GpL16-k0 (antibody, human IgG1, kappa)
heavy 1: not shown
heavy 2: not shown
light: DIVMTQSPLSLPVTPGEPASISCQASESLVHSNRNTYLHWYLQKPGQSPQLLIYKVSNRFSGVPDRFSGSGSGTDFTLKISRVEAEDVGVYYCSQNTHVPPTFGQGTKVEIERTVAAPSVFIFPPSDEQLKSGTASVVCLLNNFYPREAKVQWKVDNALQSGNSQESVTEQDSKDSTYSLSSTLTLSKADYEKHKVYACEVTHQGLSSPVTKSFNRGEC
notes: as for B1
Take B6: in test [1], the He/Con_1a is 103 % of control GpH7-A5/GpH7-B3/GpL16-k0 (=100). The He/Con_2b in test [2] is 89.6 % of control GpH7-A5/GpH7-B3/GpL16-k0 (=100).

B7: GpH7-A5/GpH7-B3 variant P329_02A/GpL16-k0 (antibody, human IgG1, kappa)
heavy 1: not shown
heavy 2: not shown
light: DIVMTQSPLSLPVTPGEPASISCQASESLVHSNRNTYLHWYLQKPGQSPQLLIYKVSNRFSGVPDRFSGSGSGTDFTLKISRVEAEDVGVYYCSQNTHVPPTFGQGTKVEIERTVAAPSVFIFPPSDEQLKSGTASVVCLLNNFYPREAKVQWKVDNALQSGNSQESVTEQDSKDSTYSLSSTLTLSKADYEKHKVYACEVTHQGLSSPVTKSFNRGEC
notes: as for B1
In the case of B7, the He/Con_1a in test [1] was 102 % of control GpH7-A5/GpH7-B3/GpL16-k0 (=100). Further, the He/Con_2b in test [2] was 40.5 % of control GpH7-A5/GpH7-B3/GpL16-k0 (=100).

B8: GpH7-A5/GpH7-B3 variant Q295_01G/GpL16-k0 (antibody, human IgG1, kappa)
heavy 1: not shown
heavy 2: not shown
light: DIVMTQSPLSLPVTPGEPASISCQASESLVHSNRNTYLHWYLQKPGQSPQLLIYKVSNRFSGVPDRFSGSGSGTDFTLKISRVEAEDVGVYYCSQNTHVPPTFGQGTKVEIERTVAAPSVFIFPPSDEQLKSGTASVVCLLNNFYPREAKVQWKVDNALQSGNSQESVTEQDSKDSTYSLSSTLTLSKADYEKHKVYACEVTHQGLSSPVTKSFNRGEC
notes: as for B1
As for B8, the He/Con_1a in test [1] was 97.6 % of control GpH7-A5/GpH7-B3/GpL16-k0 (=100). The He/Con_2b in test [2] was 46 % of control GpH7-A5/GpH7-B3/GpL16-k0 (=100).

B9: GpH7-A5/GpH7-B3 variant Q295_02A/GpL16-k0 (antibody, human IgG1, kappa)
heavy 1: not shown
heavy 2: not shown
light: DIVMTQSPLSLPVTPGEPASISCQASESLVHSNRNTYLHWYLQKPGQSPQLLIYKVSNRFSGVPDRFSGSGSGTDFTLKISRVEAEDVGVYYCSQNTHVPPTFGQGTKVEIERTVAAPSVFIFPPSDEQLKSGTASVVCLLNNFYPREAKVQWKVDNALQSGNSQESVTEQDSKDSTYSLSSTLTLSKADYEKHKVYACEVTHQGLSSPVTKSFNRGEC
notes: as for B1
Consider B9, for which the He/Con_1a in test [1] is 104 % of control GpH7-A5/GpH7-B3/GpL16-k0 (=100). The He/Con_2b in test [2] is 79.7 % of control GpH7-A5/GpH7-B3/GpL16-k0 (=100).

B10: GpH7-A5/GpH7-B3 variant Q295_14T/GpL16-k0 (antibody, human IgG1, kappa)
heavy 1: not shown
heavy 2: not shown
light: DIVMTQSPLSLPVTPGEPASISCQASESLVHSNRNTYLHWYLQKPGQSPQLLIYKVSNRFSGVPDRFSGSGSGTDFTLKISRVEAEDVGVYYCSQNTHVPPTFGQGTKVEIERTVAAPSVFIFPPSDEQLKSGTASVVCLLNNFYPREAKVQWKVDNALQSGNSQESVTEQDSKDSTYSLSSTLTLSKADYEKHKVYACEVTHQGLSSPVTKSFNRGEC
notes: as for B1
On to B10, for which the He/Con_1a in test [1] was 103 % of control GpH7-A5/GpH7-B3/GpL16-k0 (=100). The He/Con_2b in test [2] was 66.8 % of control GpH7-A5/GpH7-B3/GpL16-k0 (=100).
